The source of these data is US20210214454A1.

The target of experiment [1] is cynomolgus CD40 protein expressed on CHO-S cells (cynomolgus) (UniProt G7PG38). Put plainly: flow cytometry on CHO-S cells transiently expressing cynomolgus CD40; AF647 anti-human IgG (H+L) secondary; GeoMean RL1-H. A general note: A flow cytometer gives signals particle by particle.
Experiment [2] addresses human CD40 protein expressed on cells (human) (UniProt P25942). Kind of experiment: flow cytometry on CHO-S cells transiently expressing human CD40; AF647 anti-human IgG (H+L) secondary; GeoMean RL1-H.

human CD40 protein expressed on cells (human), sequence (P25942 21-277 limits assumed): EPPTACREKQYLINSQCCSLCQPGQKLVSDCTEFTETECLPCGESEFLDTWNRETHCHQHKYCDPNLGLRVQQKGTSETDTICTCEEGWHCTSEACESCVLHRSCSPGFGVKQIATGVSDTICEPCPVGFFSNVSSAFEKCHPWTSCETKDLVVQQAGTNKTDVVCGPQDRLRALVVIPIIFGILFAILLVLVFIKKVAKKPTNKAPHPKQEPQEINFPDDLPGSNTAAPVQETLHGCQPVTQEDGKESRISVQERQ

In the case of selicrelumab analogue (antibody), the EC50 (read off the curve) was 0.08 µg/mL in experiment [1] and 0.07 µg/mL in experiment [2].

For orientation: EC50 (read off the curve) means the midpoint of the concentration-response curve. Read a high EC50 (read off the curve) as a need for much substance.
